Experiment in all cases: SPR, TYRP1 ECD-Fc captured with anti-PGLALA antibody, 1:1 Langmuir
On the technique in general: SPR reads the build-up and loss of mass on a sensor chip optically.

Experiment [1] deals with Mouse TYRP1 ECD-Fc(knob)-Avi / Fc(hole) (mouse) [IgG part: P01857].
For experiment [2], the target named is Cynomolgus TYRP1 ECD-Fc(knob)-Avi / Fc(hole) (cynomolgus) [IgG part: P01857].
Experiment [3] has as its target Human TYRP1 ECD-Fc(knob)-Avi / Fc(hole) (human) [IgG part: P01857].

From US20200270347A1 come the findings set out here.

Broadly, the Kd is the equilibrium constant for the complex coming apart. The low end stands for tighter binding, the high end for weaker binding.

For the substance parental TA99 antibody (Fab), the values for the Kd in experiment [1], in experiment [2] and in experiment [3] were 0.31 nM, 0.12 nM and 0.09 nM, respectively.
